Results published in the supplement of paper PMC9170038.

System: MS2 coat protein
Assay: apparent KD of MS2 coat protein; designed switch direction (-1 OFF switch, 1 ON switch): -1; higher = weaker reporter binding
In short: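 An oligonucleotide input, 200 uM small-molecule ligand, or no input was present during titration of SNAP-549-labelled MS2 coat protein, which was doubled from 0.7 or 1.5 nM to 3 µM. Designed RNA switches had been transcribed on Illumina chips by stalled E. coli RNA polymerase. Apparent KD per design is the median over clusters of curves fitted to normalised cluster fluorescence.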

[1] = input ligand: microRNA oligo, concentration not stated
[2] = Eterna round: R95, input ligand: microRNA oligo, concentration not stated
[3] = Eterna round: R95, input ligand: FMN 200 uM
[4] = Eterna round: R95, input ligand: none

## CGCCAAAGGAAGGAUAUGCUAGACGAAAGUCUAGCAGAAGGUCCUACAUGAGGAUCACCCAUGUGUCCUAGGCG [Mat - Exclusion 6 - Eli Mod - D10] (Eterna round: R97, puzzle: Exclusion 6)
Input ligand: FMN 200 uM
  apparent KD of MS2 coat protein: 0.0491 µM
Input ligand: none
  apparent KD of MS2 coat protein: 0.0461 µM

## CGCCGAGUGUUAGGAUAUCACAAGCAUAAGCGGUGAGAAGGAACAUGAGGAUCACCCAUGUACUGUCCCAUCGGGACAGGUUUC [Ribeon] (Eterna round: R96, puzzle: Exclusion NG 1)
Input ligand: FMN 200 uM
  apparent KD of MS2 coat protein: 0.17 µM
[1]
  apparent KD of MS2 coat protein: 0.054 µM
Input ligand: none
  apparent KD of MS2 coat protein: 0.0708 µM

## CGCGAGGGAGGAUAUGCACUCAGUGAUCACGCCCAAAUUCGACAUGAGGAUCACCCAUGUAGAAGGCCCGGCUA [EX2 B.15] (Eterna round: R97, puzzle: Exclusion 2)
Input ligand: FMN 200 uM
  apparent KD of MS2 coat protein: 0.0211 µM
Input ligand: none
  apparent KD of MS2 coat protein: 0.019 µM

## CGCUGGACAGGAUAUGUUCUUGGGCACUUGAGGAUCACCCAAGUCAUCGGGACAUCAGGCACAGAAGGGUUUAUGG [salish99_ex5_r4_026] (Eterna round: R97, puzzle: Exclusion 5)
Input ligand: FMN 200 uM
  apparent KD of MS2 coat protein: 0.0191 µM
Input ligand: none
  apparent KD of MS2 coat protein: 0.0211 µM

## CGGAUGUCAGGAUAUCGUGCAUACAACGAAAGUUCUAUGUGCGAGAAGGGACAUGAGGAUCACCCAUGUUUACG [Omei Ex4 A11] (Eterna round: R97, puzzle: Exclusion 4)
Input ligand: FMN 200 uM
  apparent KD of MS2 coat protein: 0.206 µM
Input ligand: none
  apparent KD of MS2 coat protein: 0.0349 µM

## CGGAUGUGAGGAUAUACAUGAGGAUCACCCAUGUGAGCCAGCUAGCUGACUGGCUCGUGUAGAAGGCACGUCUG [JL-ex3-2.16 Brourd mod] (puzzle: Exclusion 3)
[2]
  apparent KD of MS2 coat protein: 0.0142 µM

## CGGCAUGUACAAGGAUAUCAGCACGAUUAGUGCUGAGAAGGUGUAACAUGAGGAUCACCCAUGUAGAUCAUUAACCGAUUAAUU [ENG1/9-A2] (Eterna round: R96, puzzle: Exclusion NG 1)
Input ligand: FMN 200 uM
  apparent KD of MS2 coat protein: 0.145 µM
[1]
  apparent KD of MS2 coat protein: 0.0643 µM
Input ligand: none
  apparent KD of MS2 coat protein: 0.0607 µM

## CGGCUACGAUGAGGAUAUACGCACAUGAGGAUCACCCAUGUAAAUCACGGGUAAAGAUCGUCAUCGUAGAAGGCAUAAGGGCCC [Ormale] (Eterna round: R96, puzzle: Exclusion NG 2)
Input ligand: FMN 200 uM
  apparent KD of MS2 coat protein: 0.033 µM
[1]
  apparent KD of MS2 coat protein: 0.0239 µM
Input ligand: none
  apparent KD of MS2 coat protein: 0.0301 µM

## CGUAAAAGGAAGGAUAUGCUAGACGAAAGUCUAGCAGAAGGUCCUACAUGAGGAUCACCCAUGUGUCCUAUACG [Mat - Exclusion 6 - Eli Mod - D12] (Eterna round: R97, puzzle: Exclusion 6)
Input ligand: FMN 200 uM
  apparent KD of MS2 coat protein: 0.0805 µM
Input ligand: none
  apparent KD of MS2 coat protein: 0.0498 µM

## CGUAUGUGAGGAUAUGACAAUGGUAUCUUCGGAUACCAUUGUCAGAAGGAACAUGAGGAUCACCCAUGUAGAUC (Eterna round: R96, puzzle: Exclusion 4)
Input ligand: FMN 200 uM
  apparent KD of MS2 coat protein: 0.161 µM
[1]
  apparent KD of MS2 coat protein: 0.0431 µM
Input ligand: none
  apparent KD of MS2 coat protein: 0.0545 µM

## CGUAUGUGAGGAUAUGACAAUGGUAUCUUCGGAUACCAUUGUCAGAAGGAACAUGAGGAUCACCCAUGUAGAUC (puzzle: Exclusion 4)
[2]
  apparent KD of MS2 coat protein: 0.0448 µM

## CGUGCGUAUGUGAGGAUAUGCUGGUCCUUGGCUCGGCAGAAGGCACAUGAGGAUCACCCAUGUGGUGUCGUACG [salish99_Bmod_ex4_062] (puzzle: Brourd's mod of Exclusion 4)
[3]
  apparent KD of MS2 coat protein: 0.0534 µM
[2]
  apparent KD of MS2 coat protein: 0.152 µM
[4]
  apparent KD of MS2 coat protein: 0.171 µM

## CGUGUACGAGGAUAUAGAUUGGAUGACAUGAGGAUCACCCAUGUGAUCAAUCUAUUUGGUUUAGAAGGUGUACAUG [JR_Ex5_Sub050] (Eterna round: R97, puzzle: Exclusion 5)
Input ligand: FMN 200 uM
  apparent KD of MS2 coat protein: 0.0141 µM
Input ligand: none
  apparent KD of MS2 coat protein: 0.0148 µM

## CUAAGUUGGUAAGGAUAUCCUACAUUAUUCUGACCCGUGCAAGCUACAUGAGGAUCACCCAUGUGGGAGAAGGUGCGUUAAUGU [Design 5] (Eterna round: R96, puzzle: Exclusion NG 2)
Input ligand: FMN 200 uM
  apparent KD of MS2 coat protein: 0.0163 µM
[1]
  apparent KD of MS2 coat protein: 0.0138 µM
Input ligand: none
  apparent KD of MS2 coat protein: 0.0203 µM

## CUAGACCGAGGAUAUAUUAUGUGAAACAUGAGGAUCACCCAUGUAAUAUGAUGGAUGUAAAUAGAAGGCGGUCUAG [Mat - Exclusion 5 - JL mod - D29] (puzzle: Exclusion 5)
[3]
  apparent KD of MS2 coat protein: 0.0314 µM
[2]
  apparent KD of MS2 coat protein: 0.0534 µM
[4]
  apparent KD of MS2 coat protein: 0.023 µM

## CUAGAUCUUCGGAUCUAGUACAUGAGGAUCACCCAUGUGACGAGUUGAUCCUCAAACAAGCUUUUUGCUCGUCUUAU [Sensor v3 - Turn-off variant 1 - 17] (puzzle: Sensor v3, turn-off variant 1)
[3]
  apparent KD of MS2 coat protein: 0.0199 µM
[2]
  apparent KD of MS2 coat protein: 0.016 µM
[4]
  apparent KD of MS2 coat protein: 0.0221 µM

## CUAGUAUAUCAGGAUAUGAUAGUGUAUAGUAUAUCAGAAGGGAUGACAUGAGGAUCACCCAUGUUAAGGGAUGA [JR_Ex6_Sub050] (Eterna round: R97, puzzle: Exclusion 6)
Input ligand: FMN 200 uM
  apparent KD of MS2 coat protein: 0.0524 µM
Input ligand: none
  apparent KD of MS2 coat protein: 0.0461 µM

## CUAGUAUAUCAGGAUAUGAUAUUGUGUAGUAUAUCAGAAGGGAUGACAUGAGGAUCACCCAUGUUAUGGGAUGA [JR_Ex6_Sub048] (Eterna round: R97, puzzle: Exclusion 6)
Input ligand: FMN 200 uM
  apparent KD of MS2 coat protein: 0.273 µM
Input ligand: none
  apparent KD of MS2 coat protein: 0.121 µM

## CUAGUCCGAGGAUAUAUUAAGUGAUACAUGAGGAUCACCCAUGUAAUUUAAUGGAAAUAAAUAGAAGGCGGACUAG [Mat - Exclusion 5 - JL mod - D52] (puzzle: Exclusion 5)
[3]
  apparent KD of MS2 coat protein: 0.0447 µM
[2]
  apparent KD of MS2 coat protein: 0.0462 µM
[4]
  apparent KD of MS2 coat protein: 0.0533 µM

## CUCAUGUGAGGAUAUGUGAUCAACCUUCUAUAUAGAUGAUUACAGAAGGCACAUGAGGAUCACCCAUGUAGAUC [Ex4 - 3 - 23] (puzzle: Exclusion 4)
[2]
  apparent KD of MS2 coat protein: 0.0211 µM

## CUCAUUUGUCAGGAUAUCGUGAGGCUAAUUAUACGAGAAGGGACGACAUGAGGAUCACCCAUGUGGUCUUUGAG [JR_Ex6_Sub082] (Eterna round: R97, puzzle: Exclusion 6)
Input ligand: FMN 200 uM
  apparent KD of MS2 coat protein: 0.161 µM
Input ligand: none
  apparent KD of MS2 coat protein: 0.0333 µM

## CUCCUACAUGAGGAUCACCCAUGUCAGGAUAUCUCAGUGGCACCUAAAGGCGCCACCCAGAGAAGGGACGUGCA [Soistiis] (puzzle: Exclusion 1)
[2]
  apparent KD of MS2 coat protein: 0.0106 µM

## CUCGCUGUAGGAUAUACAUAUGUCCUGUCAGCCGCGGCAGAACAUGAGGAUCACCCAUGUAGAAGGAUAGAGAG [Eternabot (Original) Solution 34] (Eterna round: R97, puzzle: Exclusion 2)
Input ligand: FMN 200 uM
  apparent KD of MS2 coat protein: 0.0483 µM
Input ligand: none
  apparent KD of MS2 coat protein: 0.0267 µM

## CUCGGACAUGAGGAUCACCCAUGUGAGGAUAUGGUGCUAUCGUCAUUAGACGAUUGCGUUAGAAGGCAUAUUUU [LRO-Excl1-30] (puzzle: Exclusion 1)
[2]
  apparent KD of MS2 coat protein: 0.0244 µM

## CUCGUGCAGCAAAGCUGUACGAGUACAUGAGGAUCACCCAUGUAGGAUAUGGUACGCAAAGCGUGCUAGAAGGAUAUGUGAAAG [Mat - Exclusion NG 3 - Mod of JL - D89] (Eterna round: R96, puzzle: Exclusion NG 3)
Input ligand: FMN 200 uM
  apparent KD of MS2 coat protein: 0.0442 µM
[1]
  apparent KD of MS2 coat protein: 0.0314 µM
Input ligand: none
  apparent KD of MS2 coat protein: 0.0499 µM

## CUCGUGCAGCUUUGCUGUACGAGUACAUGAGGAUCACCCAUGUAGGAUAUGGUACGCUUUGCGUGCUAGAAGGAUAUGUGUAGG [JL EXNG3 1.38] (Eterna round: R96, puzzle: Exclusion NG 3)
Input ligand: FMN 200 uM
  apparent KD of MS2 coat protein: 0.0441 µM
[1]
  apparent KD of MS2 coat protein: 0.0184 µM
Input ligand: none
  apparent KD of MS2 coat protein: 0.0313 µM
